Measurements from publication PMC5316805, “Potent single-domain antibodies that arrest respiratory syncytial virus fusion protein in its prefusion state” (Nature Communications, 2017).

B1: F-VHH-4 (VHH)
VHH: QVQLQESGGGLVQPGGSLRLSCAASGFTLDYYYIGWFRQAPGKEREAVSCISGSSGSTYYPDSVKGRFTISRDNAKNTVYLQMNSLKPEDTAVYYCATIRSSSWGGCVHYGMDYWGKGTQVTVSS
notes: llama VHH; also in PDB 5TP3 and 5TOJ; Disulfide between Cys50 (CDR2) and Cys100c (CDR3), Kabat numbering; the Pichia-made protein was used in the complex crystals; also called clone 4; source: P. pastoris GS115, secreted, purified (ammonium sulfate precipitation, HisTrap HP, Superdex 75); not shown: His6, C-terminal, kept
B2: F-VHH-L66 (VHH)
VHH: QVQLQESGGGLVQPGGSLRLSCAASGFTLDYYYIGWFRQAPGKEREGVSCISSSHGSTYYADSVKGRFTISRDNAKNTVYLQMNSLKPEDTAVYYCATVAVAHFRGCGVDGMDYWGKGTQVTVSS
notes: llama VHH; also in PDB 5TOK; Disulfide between Cys50 (CDR2) and Cys100c (CDR3), Kabat numbering; source: P. pastoris GS115, secreted, purified (ammonium sulfate precipitation, HisTrap HP, Superdex 75); not shown: His6, C-terminal, kept

Experiments:
[1] = target: RSV A2 F, full length, on RSV A2-infected cells and virions (human respiratory syncytial virus A2, UniProt P03420); test: cell-based or functional assay
[2] = target: T1, prefusion-stabilized RSV F (DS-Cav1) with a C-terminal Strep-tag II and 6X HisTag (human respiratory syncytial virus A2 …, stabilised); test: SPR; DS-Cav1 captured by its His tag on an NTA chip to ~530 RU each cycle (Biacore X100); VHH 2-fold dilutions 5 nM to 39.1 pM in HBS-P+; double-reference subtracted, 1:1 binding model (Scrubber); conditions: both partners purified
T1 construct: RSV fusion (F) protein, F2 subunit (N-terminal cut product of F0) of DS-Cav1; RSV fusion (F) protein, soluble part of the F1 subunit (C-terminal cut product of F0) of DS-Cav1; also called prefusion F; prefusion RSV F; source: purified; not shown: Strep-tag II, C-terminal, kept; His6, C-terminal, kept; copies: 3 + 3

Binder	plaque-reduction neutralisation of RSV A2 and RSV B49 on Vero cells, IC50 [1] [nM]	Kd [2] [nM]	koff [2] [s⁻¹]	kon [2] [M⁻¹ s⁻¹]
B1	< 0.1	< 0.018	< 1e-05	570000
B2	< 0.1	0.154	5e-05	330000
